Results reported in doi:10.1101/2023.03.15.532789.

What was measured:
[1] = target: hDLG1 PDZ1 domain (human) (UniProt Q12959); test: NMR titration
[2] = target: hDLG1 PDZ1 domain (human) (UniProt Q12959); test: ITC
[3] = target: hDLG1 PDZ2 domain (human) (UniProt Q12959); test: ITC
Sequence of hDLG1 PDZ2 domain (human) (Q12959 whole entry, the tested form may be a part): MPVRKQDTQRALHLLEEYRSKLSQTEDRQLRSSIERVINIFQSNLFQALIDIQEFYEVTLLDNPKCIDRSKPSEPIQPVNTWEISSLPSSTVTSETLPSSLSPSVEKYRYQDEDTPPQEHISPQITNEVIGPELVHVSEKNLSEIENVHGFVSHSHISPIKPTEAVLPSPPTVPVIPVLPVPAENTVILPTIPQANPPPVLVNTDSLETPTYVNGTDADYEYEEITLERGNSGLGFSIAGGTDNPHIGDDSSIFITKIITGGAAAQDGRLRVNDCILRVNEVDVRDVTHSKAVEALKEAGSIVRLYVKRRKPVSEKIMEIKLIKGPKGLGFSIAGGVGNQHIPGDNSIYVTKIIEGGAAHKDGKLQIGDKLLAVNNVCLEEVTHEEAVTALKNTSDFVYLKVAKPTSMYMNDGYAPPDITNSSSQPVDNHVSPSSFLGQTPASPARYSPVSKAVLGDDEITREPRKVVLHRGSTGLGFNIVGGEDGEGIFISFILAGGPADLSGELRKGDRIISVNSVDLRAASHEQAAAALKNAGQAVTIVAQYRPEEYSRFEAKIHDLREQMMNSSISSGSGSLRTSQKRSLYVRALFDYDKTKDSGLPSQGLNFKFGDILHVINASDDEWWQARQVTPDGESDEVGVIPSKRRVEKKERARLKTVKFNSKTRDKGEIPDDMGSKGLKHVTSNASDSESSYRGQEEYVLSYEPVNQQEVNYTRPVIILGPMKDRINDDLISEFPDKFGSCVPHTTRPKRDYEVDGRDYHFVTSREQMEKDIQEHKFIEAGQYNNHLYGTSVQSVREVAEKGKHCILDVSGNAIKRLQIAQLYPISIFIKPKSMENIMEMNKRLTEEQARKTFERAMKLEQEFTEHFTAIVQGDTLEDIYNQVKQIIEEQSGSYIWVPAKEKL

Sequence of hDLG1 PDZ1 domain (human) (Q12959 whole entry, the tested form may be a part): as above

Substance	Kd [1]	Kd [2]	dH [2]	stoichiometry N [2]	Kd [3]	dH [3]	stoichiometry N [3]
C-terminally amidated Tax-1 peptide (Tax-1mod)	951000 nM						
Tax-1 10-mer peptide (H-…-OH)		2700 nM	-8 kcal/mol	1.03	900 nM	-10.4 kcal/mol	0.99
